Measured values taken from paper PMC9512822, “Redβ177 annealase structure reveals details of oligomerization and λ Red-mediated homologous DNA recombination” (Nature Communications, 2022).

Columns and labels:
[1] = molecular target: the molecule itself; experiment: cryo-EM structure; purified Redβ177 incubated in turn with two complementary 27mer oligonucleotides (molar ratio 7.7:1:1) in 20 mM KH2PO4 pH 6.0, 5 mM MgCl2, room temperature, then dialysed overnight at 4 °C; helical reconstruction of the 1-start left-handed helix, 3.3 Å; a 2-start assembly was seen only in 2D classes
Redβ177 = molecular target: T1, Redβ177 (Escherichia coli bacteriophage lambda, UniProt P03698 1-177); experiment: cryo-EM structure (helical reconstruction, 3.3 Å); 5 mM MgCl2; Redβ177:Oligo 1:Oligo 2 7.7:1:1; 4 bp per monomer; base identity averaged, arbitrary sequence modelled; 20 mM KH2PO4 pH 6.0, 5 mM MgCl2; 30 min at room temperature with each oligo, then dialysis overnight at 4 °C; conditions: protein: recombinant; tags: C-terminal His6; blunt
T1 sequence: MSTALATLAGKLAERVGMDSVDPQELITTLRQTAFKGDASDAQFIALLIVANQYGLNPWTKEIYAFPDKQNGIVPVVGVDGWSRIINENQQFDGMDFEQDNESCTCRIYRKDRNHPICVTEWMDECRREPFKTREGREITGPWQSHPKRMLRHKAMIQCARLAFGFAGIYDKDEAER

Binder | binding result [1] | binding result (Redβ177)
Redβ177-His6 (N-terminal residues 1-177 of the Redβ annealase of bacteriophage λ) (domain or fragment, bacteriophage lambda (phage λ), UniProt P03698 1-177, looked up, Redβ (Beta) annealase, product of the bet gene of bacteriophage lambda, UniProtKB P03698, N-terminal residues 1-177 (C-terminally truncated); The molecule forms a helical filament of no fixed number of subunits; Residues 3-169 were modelled, except 133-138; also called Redβ177-6xHis; Redβ N-terminal domain; not shown: His6, C-terminal, kept) MSTALATLAGKLAERVGMDSVDPQELITTLRQTAFKGDASDAQFIALLIVANQYGLNPWTKEIYAFPDKQNGIVPVVGVDGWSRIINENQQFDGMDFEQDNESCTCRIYRKDRNHPICVTEWMDECRREPFKTREGREITGPWQSHPKRMLRHKAMIQCARLAFGFAGIYDKDEAER | binds | 
Oligo 1 + Oligo 2 annealing intermediate (27mer) (dsDNA) DNA 1: TGCAGCAGCTTTACCATCTGCCGCTGG DNA 2: CCAGCGGCAGATGGTAAAGCTGCTGCA |  | binds
